Laboratory results from patent US20190300590A1 (PROTAGONIST THERAPEUTICS, published 2019).
*1 amine or outer side, *2 acyl side, *3 side chain or, on linkers, in order; H or OH if unused. Bridges are numbered along the chain shown (N, C = ends). Primed or numbered codes have the meaning given here. [ ]: non-standard residue; d: D form. Phe(4-OMe)(3) = O-methyl-L-tyrosine (4-methoxy-L-phenylalanine), COc1ccc(C[C@H](N[*:1])C(=O)[*:2])cc1; Phe(4-OMe)(5) = O-methyl-L-tyrosine (4-methoxy-Phe), COc1ccc(C[C@H](N[*:1])C(=O)[*:2])cc1; Phe(4-OMe)(4) = O-methyl-L-tyrosine, COc1ccc(C[C@H](N[*:1])C(=O)[*:2])cc1; Phe(3,4-(OMe)2) = COc1ccc(C[C@H](N)C(=O)O)cc1OC; Phe(4-CF3) = N[C@@H](Cc1ccc(C(F)(F)F)cc1)C(=O)O; Phe(4-tBu) = CC(C)(C)c1ccc(C[C@H](N)C(=O)O)cc1; Bip = N[C@@H](Cc1ccc(-c2ccccc2)cc1)C(=O)O; 2Nal = N[C@@H](Cc1ccc2ccccc2c1)C(=O)O; Ala(cPent) = N[C@@H](CC1CCCC1)C(=O)O; AEF = NCCOc1ccc(C[C@H](N)C(=O)O)cc1; Gly(octyl) = CCCCCCCC[C@H](N)C(=O)O; hArg = N=C(N)NCCCC[C@H](N)C(=O)O; Cav = NC(N)=NOCC[C@H](N)C(=O)O; αMeL = CC(C)C[C@](C)(N)C(=O)O; Pen = CC(C)(S)[C@H](N)C(=O)O; hLeu = CC(C)CC[C@H](N)C(=O)O; αMeK = C[C@](N)(CCCCN)C(=O)O; αMeS = C[C@](N)(CO)C(=O)O; Iva = CC[C@](C)(N)C(=O)O; Orn = NCCC[C@H](N)C(=O)O; Abu = CC[C@H](N)C(=O)O; Dap = NC[C@H](N)C(=O)O; Aib = CC(C)(N)C(=O)O; AEA = NCCOCC(=O)O

T1: IL23R_huFC (human, UniProt Q5VWK5 24-353)
T1 sequence (looked up): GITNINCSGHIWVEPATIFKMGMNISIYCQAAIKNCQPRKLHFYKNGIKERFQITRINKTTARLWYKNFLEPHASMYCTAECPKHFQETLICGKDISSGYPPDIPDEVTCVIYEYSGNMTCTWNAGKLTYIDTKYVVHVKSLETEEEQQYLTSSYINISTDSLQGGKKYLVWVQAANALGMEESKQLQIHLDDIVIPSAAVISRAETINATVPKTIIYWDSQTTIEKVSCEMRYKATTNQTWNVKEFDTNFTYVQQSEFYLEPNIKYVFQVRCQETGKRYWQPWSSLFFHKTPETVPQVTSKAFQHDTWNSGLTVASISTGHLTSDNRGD

T2: IL23R_huFC (human, UniProt Q5VWK5 24-353)
T2 sequence (looked up): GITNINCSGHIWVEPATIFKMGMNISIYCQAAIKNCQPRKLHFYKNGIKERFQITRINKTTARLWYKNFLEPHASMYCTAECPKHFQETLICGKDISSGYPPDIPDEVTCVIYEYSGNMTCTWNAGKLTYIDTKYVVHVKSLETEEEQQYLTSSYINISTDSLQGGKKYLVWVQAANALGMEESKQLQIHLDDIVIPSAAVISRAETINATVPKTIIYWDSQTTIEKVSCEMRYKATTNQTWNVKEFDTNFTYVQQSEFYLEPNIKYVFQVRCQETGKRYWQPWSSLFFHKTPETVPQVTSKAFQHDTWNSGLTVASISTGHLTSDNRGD

T3: IL-23R on human cells (IL-23R-expressing DB cells; human NK cells) (human, UniProt Q5VWK5 24-629)
T3 sequence (looked up): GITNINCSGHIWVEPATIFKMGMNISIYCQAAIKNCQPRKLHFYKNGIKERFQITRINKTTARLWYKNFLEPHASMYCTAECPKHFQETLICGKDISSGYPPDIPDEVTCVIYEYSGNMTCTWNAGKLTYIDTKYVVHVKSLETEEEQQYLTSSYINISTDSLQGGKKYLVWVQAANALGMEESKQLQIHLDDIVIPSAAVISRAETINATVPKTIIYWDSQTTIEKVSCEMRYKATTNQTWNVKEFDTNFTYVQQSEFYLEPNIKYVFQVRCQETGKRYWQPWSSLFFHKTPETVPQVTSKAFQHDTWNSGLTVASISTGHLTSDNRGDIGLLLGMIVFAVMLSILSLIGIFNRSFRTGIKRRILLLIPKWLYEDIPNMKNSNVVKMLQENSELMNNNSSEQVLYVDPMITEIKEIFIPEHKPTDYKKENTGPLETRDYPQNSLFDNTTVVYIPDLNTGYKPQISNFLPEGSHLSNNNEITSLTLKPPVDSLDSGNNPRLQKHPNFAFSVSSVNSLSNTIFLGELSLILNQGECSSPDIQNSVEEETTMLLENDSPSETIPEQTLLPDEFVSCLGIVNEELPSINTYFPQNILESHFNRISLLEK


Columns and labels:
IL23R_huFC [1] = target: T1, IL23R_huFC; assay: IL23-IL23R competitive ELISA
IL23R_huFC [2] = target: T2, IL23R_huFC; assay: human ELISA vs IL-23
[3] = target: T3, IL-23R on human cells …; assay: cell-based or functional assay

Binder	IC50 (IL23R_huFC [1])	IC50 (IL23R_huFC [2])	pStat3 HTRF IC50 [3]
Ac-CADWVCYWHTFGER-NH2 (disulfide 1-6 (inferred)) [Ac-CADWVCYWHTFGER-NH2]	< 500 nM	–	–
Ac-CADWVCYWHTHGER-NH2 (disulfide 1-6 (inferred)) [Ac-CADWVCYWHTHGER-NH2]	< 500 nM	–	–
Ac-CQTWQCYW[Cav]ENG-NH2 (disulfide 1-6 (inferred)) [Ac-CQTWQCYW-[Cav]-ENG-NH2]	< 500 nM	–	–
H-CRTWQCYWRKFG-NH2 (disulfide 1-6 (inferred)) [Hy-CRTWQCYWRKFG-NH2]	< 500 nM	–	–
Ac-[Abu]QTWQC[AEF]W[αMeK]K(Ac)[Dap]G-NH2 (thioether 1-6) [Ac-Cyclo-[[Abu]-QTWQC]-[Phe[4-(2-aminoethoxy)]]-W-[α-MeLys]-[Lys(Ac)]-[Dap]-G-NH2]	–	> 1000 nM	–
Ac-[Abu]QTWQ[dC]YW[hLeu]ENG-NH2 (thioether 1-6) [Ac-Cyclo-[Abu]-QTWQ-(D)Cys]]-YW-[hLeu]-ENG-NH2]	–	> 1000 nM	–
Ac-[Abu]QTWQC[Phe(4-OMe)(3)][Gly(octyl)][αMeK]K(Ac)NG-NH2 (thioether 1-6) [Ac-Cyclo-[[Abu]-QTWQC]-[Phe(4-OMe)]-[Octgly]-[α-MeLys]-[Lys(Ac)]-NG-NH2]	–	~10000 nM	–
Ac-[Abu]QTWQC[Phe(4-OMe)(3)][Phe(4-tBu)][αMeK]ENG-NH2 (thioether 1-6) [Ac-Cyclo-[[Abu]-QTWQC]-[Phe(4-OMe)]-[Phe(4-tBu)]-[α-MeLys]-ENG-NH2]	–	> 1000 nM	–
Ac-[Abu]QTWQC[AEF]W[αMeL]ENG-NH2 (thioether 1-6) [Ac-Cyclo-[[Abu]-QTWQC]-[Phe[4-(2-aminoethoxy)]]-W-[α-Me-Leu]-ENG-NH2]	–	< 10 nM	< 10 nM
XQTWQCFXKXNG (as bracketed in name; thioether cyclo) [Ac-Cyclo-[[Abu]-QTWQC]-[Phe[4-(2-aminoethoxy)]]-[2-Nal]-[α-MeLys]-[Orn]-NG-NH2]	–	< 10 nM	< 10 nM
Ac-[Abu]TWQC[AEF][2Nal][αMeK]ENG-NH2 (thioether 1-5) [Ac-Cyclo-[[Abu]-TWQC]-[Phe[4-(2-aminoethoxy)]]-[2-Nal]-[α-MeLys]-ENG-NH2]	–	< 10 nM	< 10 nM
Ac-CRTWECYWHEQS-NH2 (disulfide 1-6 (inferred)) [Ac-CRTWECYWHEQS-NH2]	< 500 nM	–	–
CQTWQCYWRXNGXK (Ac-; [Dapa]; [AEA]; [(D)-Lys]; -NH2; disulfide) [Ac-CQTWQCYWR-[Dapa]-NG-[AEA]-[(D)-Lys]-NH2]	< 500 nM	–	–
Ac-CQTWQCYWR[Orn]NG[AEA][dK]-NH2 (disulfide 1-6; SMILES CC(=O)N[C@H]1CSSC[C@@H](C(=O)N[C@@H](Cc2ccc(O)cc2)C(=O)N[C@@H](Cc2c[nH]c3ccccc23)C(=O)N[C@@H](CCCNC(=N)N)C(=O)N[C@@H](CCCN)C(=O)N[C@@H](CC(N)=O)C(=O)NCC(=O)NCCOCC(=O)N[C@H](CCCCN)C(N)=O)NC(=O)[C@H](CCC(N)=O)NC(=O)[C@H](Cc2c[nH]c3ccccc23)NC(=O)[C@H]([C@@H](C)O)NC(=O)[C@H](CCC(N)=O)NC1=O) [Ac-CQTWQCYWR-[Orn]-NG-[AEA]-[(D)-Lys]-NH2]	< 500 nM	–	–
Ac-CQTWQCYWRK(Ac)NG-NH2 (disulfide 1-6 (inferred)) [Ac-CQTWQCYWR-[K-Ac]-NG-NH2]	< 500 nM	–	–
Ac-CQTWQCYW[hLeu]ENG-NH2 (disulfide 1-6 (inferred)) [Ac-CQTWQCYW[-hLeu]-ENG-NH2]	< 500 nM	–	–
Ac-[Abu]QTWQC[AEF][2Nal][Aib]KNG-NH2 (thioether 1-6) [Ac-Cyclo-[[Abu]-QTWQC]-[Phe[4-(2-aminoethoxy)]]-[2-Nal]-[Aib]-KNG-NH2]	–	< 10 nM	< 10 nM
Ac-[Abu]QTWQC[AEF][2Nal][Aib]K(Ac)NG-NH2 (thioether 1-6) [Ac-Cyclo-[[Abu]-QTWQC]-[Phe[4-(2-aminoethoxy)]]-[2-Nal]-[Aib]-[Lys(Ac)]-NG-NH2]	–	< 10 nM	< 10 nM
XQTWQCFXXKNG (as bracketed in name; thioether cyclo) [Ac-Cyclo-[[Abu]-QTWQC]-[Phe[4-(2-aminoethoxy)]]-[2-Nal]-[α-Me-Orn]-[Lys(Ac)]-NG-NH2]	–	< 10 nM	< 10 nM

Binder	IC50 (IL23R_huFC [1])	IC50 (IL23R_huFC [2])	pStat3 HTRF IC50 [3]
Ac-DTPRCRTWECYWHTFG-NH2 (disulfide 5-10 (inferred)) [Ac-DTPRCRTWECYWHTFG-NH2]	< 500 nM	–	–
Ac-CEDWKCYWHKYG-NH2 (disulfide 1-6 (inferred)) [Ac-CEDWKCYWHKYG-NH2]	< 500 nM	–	–
Ac-[Abu]QTWQ[Pen]YW[hLeu]ENG-NH2 (thioether 1-6) [Ac-Cyclo-[[Abu]-QTWQ-[Pen]]-YW-[hLeu]-ENG-NH2]	–	> 1000 nM	–
Ac-CQTWQCYW[Ala(cPent)]ENG-NH2 (disulfide 1-6 (inferred)) [Ac-CQTWQCYW-[Cpa]-ENG-NH2]	< 500 nM	–	–
Ac-[Abu]QT[Bip]QC[Phe(4-OMe)(4)][2Nal][αMeK]K(Ac)NG-NH2 (thioether 1-6) [Ac-Cyclo-[[Abu]-QT-[Bip]-QC]-[Phe(4-OMe)]-[2-Nal][α-MeLys]-[Lys(Ac)]-NG-NH2]	–	~10000 nM	–
Ac-[Abu]QTWQC[AEF][2Nal][αMeK]K(Ac)NG[AEA][dK]-NH2 (thioether 1-6) [Ac-Cyclo-[[Abu]-QTWQC]-[Phe[4-(2-aminoethoxy)]]-[2-Nal][α-MeLys]-[Lys(Ac)]--NG-[AEA]-[(D)Lys]-NH2]	–	< 10 nM	< 10 nM
Ac-CQTWECYWHLYG-NH2 (disulfide 1-6 (inferred)) [Ac-CQTWECYWHLYG-NH2]	< 500 nM	–	–
Ac-[Abu]QT[Phe(3,4-(OMe)2)]QC[AEF][2Nal][αMeK]ENG-NH2 (thioether 1-6) [Ac-Cyclo-[[Abu]-QT-[Phe(3,4-OMe)]-QC]-[Phe[4-(2-aminoethoxy)]]-[2-Nal]-[α-MeLys]-ENG-NH2]	–	~3000 nM	–
Ac-[Abu]QTWQC[AEF][2Nal][Iva]K(Ac)NG-NH2 (thioether 1-6) [Ac-Cyclo-[[Abu]-QTWQC]-[Phe[4-(2-aminoethoxy)]]-[2-Nal]-[α-Me-Gly(Ethyl)]Lys(Ac)]-NG-NH2]	–	< 10 nM	< 10 nM
Ac-[Abu]QTWQC[AEF][2Nal][αMeK][hArg]NG-NH2 (thioether 1-6) [Ac-Cyclo-[[Abu]-QTWQC]-[Phe[4-(2-aminoethoxy)]]-2-Nal]-[α-MeLys]-hRNG-NH2]	–	< 10 nM	< 10 nM
Ac-[Abu]QTWQC[Gly(octyl)][2Nal][αMeK]K(Ac)NG-NH2 (thioether 1-6) [Ac-Cyclo-[[Abu]-QTWQC]-[Octgly]-[2-Nal]-[α-MeLys]-[Lys(Ac)]-NG-NH2]	–	~10000 nM	–
Ac-[Abu]QTWQC[AEF][2Nal][αMeS]K(Ac)NG-NH2 (thioether 1-6) [Ac-Cyclo-[[Abu]-QTWQC]-[Phe[4-(2-aminoethoxy)]]-[2-Nal]-[α-MeSer]-[Lys(Ac)]-NG-NH2]	–	< 10 nM	< 10 nM
Ac-[Abu]QT[Phe(4-CF3)]QC[AEF][2Nal][αMeK]ENG-NH2 (thioether 1-6) [Ac-Cyclo-[[Abu]-QT-[Phe(4-CF3)]-QC]-[Phe[4-(2-aminoethoxy)]]-[2-Nal]-[α-MeLys]-ENG-NH2]	–	~3000 nM	–
Ac-[Abu]TTWQC[AEF][2Nal][αMeK]ENG-NH2 (thioether 1-6) [Ac-Cyclo-[[Abu]-TTWQC]-[Phe[4-(2-aminoethoxy)]]-[2-Nal]-[α-MeLys]-ENG-NH2]	–	< 10 nM	< 10 nM
Ac-[Abu]QTYQC[Phe(4-OMe)(5)][2Nal][αMeK]K(Ac)NG-NH2 (thioether 1-6) [Ac-Cyclo-[[Abu]-QTYQC]-[Phe(4-OMe)]-[2-Nal]-[α-MeLys]-[Lys(Ac)]-NG-NH2]	–	~10000 nM	–
Ac-[Abu]QTWQC[AEF][2Nal][αMeK]QNG-NH2 (thioether 1-6) [Ac-Cyclo-[[Abu]-QTWQC]-[Phe[4-(2-aminoethoxy)]]-[2-Nal]-[α-MeLys]-QNG-NH2]	–	< 10 nM	< 10 nM
Ac-[Abu]QTWQC[AEF][2Nal][αMeK]NNG-NH2 (thioether 1-6) [Ac-Cyclo-[[Abu]-QTWQC]-[Phe[4-(2-aminoethoxy)]]-[2-Nal]-[α-MeLys]-NNG-NH2]	–	< 10 nM	< 10 nM
Ac-CADWVCYWHRHADRVK-NH2 (disulfide 1-6 (inferred)) [Ac-CADWVCYWHRHADRVK-NH2]	< 500 nM	–	–
